In patent US12097241B2, “Methods of treating kidney failure, and/or improving or stablizing renal function using modified relaxin polypeptides” (BRISTOL-MYERS SQUIBB COMPANY, priority 2017, dated 2024):
“Also recorded” adds a separate entry of the source. Like-named read-outs stand apart in the source and are kept apart here. Marks after values point to notes of the source that are not given here. Square brackets hold non-standard residues; d marks the D form. Ends that are not written are not given here. Phe(4-Ac) = CC(=O)c1ccc(C[C@H](N)C(=O)O)cc1

How the values were obtained:
[1] = In vivo pharmacokinetic (PK) studies in rats; set-up: species or system Sprague-Dawley rats; details: for AUC(0-inf): read-out: Rat PK AUC Total; for level at time molar at 24 h: read-out: Rat PK C24
Procedure, shortened: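 Male Sprague-Dawley rats (n=3) given a single 1 mg/kg IV or SC dose of relaxin constructs in 20 mM histidine, 750 mM NaCl, pH 6.0; jugular serum sampled to 72 h. Serum relaxin by ELISA; Cmax, AUCinf, C24 and half-life from non-compartmental analysis of individual profiles.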

[2] = tested on: renal tubular epithelial cells; test: Rat toxicity studies, kidney histopathology; assay type: in vivo, Sprague Dawley rats; details: rats
Method: FIGS. 7A-7D. PEG-related renal cortical tubule epithelial vacuolation in female Sprague Dawley rats. Kidney from rats treated subcutaneously (SQ) once a day with vehicle or relaxin analogs. […] FIG. 7A: Vehicle (150 mM Arg in 10 mM citrate buffer pH 5.5) SQ for 10 days. FIG. 7B: AQ1-PEG36-Glu-C13-COOH (1.5 kD PEG) SQ at 40 mg/kg/day for 7 days. FIG. 7C: AQ1-20-kDa-PEG (20 kD PEG) SQ at 15 mg/kg/day for 10 days. FIG. 7D: AQ1-GGGGS-Glu^γ (SEQ ID NO: 139)-C14-COOH SQ at 40 mg/kg for 7 days. Magnification 40×, H&E.
AQ1-20 kDa-PEG was given to rats by subcutaneous administration at doses of 1, 5, and 15 mg/kg/day for 10 days. Following the final dose animals were euthanized, dissected, and kidney histopathology was performed. […] In contrast, vacuoles were not observed in renal tubular epithelial cells of rats dosed with Vehicle (150 mM Arg in 10 mM citrate buffer pH 5.5) subcutaneously for 10 days (FIG. 7A).
AQ1-PEG36-Glu-C13-COOH was given to rats by subcutaneous administration at doses of 10 and 40 mg/kg/day for 7 days. Following the final dose animals were euthanized, dissected, and kidney histopathology was performed.
AQ1-GGGGS-Glu^γ (SEQ ID NO: 139)-C14-COOH was given to rats by subcutaneous administration at doses of 5, 20, and 40 mg/kg/day for 7 days. Following the final dose animals were euthanized, dissected, and kidney histopathology was performed.

Solubility observations = details: data not shown
[3] = Rat renal blood flow studies; assay type: in vivo, Sprague Dawley rats; details: 1 mg/kg intravenously; for % change in RBF over baseline: anesthetized male Sprague Dawley rats, renal blood flow recorded for 45 min
Method: Male Sprague Dawley rats (˜250-300 g) were anesthetized with sodium pentobarbital (50 mg/kg), the trachea was cannulated with PE-205 tubing to maintain airway patency, and temperature was maintained at 37° C. with a heated surgical plate. A 1.4 F pressure catheter (Millar Inc., Houston, TX) was advanced into the right carotid artery to measure aortic blood pressure. The right jugular vein was cannulated with PE-50 tubing for administration of test articles. The left kidney was exposed by a retroperitoneal incision, and a Doppler flow probe (Model 0.5 VB, Transonic System Inc., Ithaca, NY) was attached to the left renal artery to monitor blood flow. Sodium pentobarbital (15 mg/kg, intraperitoneal) was supplemented after completion of these surgical procedures. Following a 10-15 min equilibration, the relaxin was administered at 1 mg/kg intravenously in a dosing volume of 0.15 to 1.82 mL/kg over 30 seconds via an infusion pump (Harvard Apparatus, Holliston, MA). Blood pressure, heart rate and renal blood flow were continuously recorded for 45 min after relaxin administration using a Millar MPVS Ultra Signal Conditioning unit connected to a desktop computer running LabChart 7-Pro data acquisition software (ADInstruments, Dunedin, New Zealand) (Table 5). Table 5. Rat renal blood flow changes (abbreviations as in Table 3).

[4] = in vivo; cited from earlier work
[5] = rat, male Sprague-Dawley rats, single SC dose 1.0 mg/kg, serum ELISA
[6] = rats, SC dose 1.0 mg/kg, adjusted from 0.2 mpk

Molecule | AUC(0-inf) [1, 5] [µM·h] | level at time molar at 24 h [1, 5] [nM] | % change in RBF over baseline [3] | effect on renal blood flow (in words) ([3]; rats) | also measured
CC[C@H](C)[C@@H]1NC(=O)[C@H](C)NC(=O)[C@H]([C@@H](C)CC)NC(=O)[C@H](CCC(N)=O)NC(=O)[C@H](C)NC(=O)[C@H](CCCNC(=N)N)NC(=O)[C@H](C(C)C)NC(=O)[C@H](CC(C)C)NC(=O)[C@H](CCC(=O)O)NC(=O)[C@H](CCCNC(=N)N)NC(=O)CNC(=O)[C@@H](NC(=O)[C@H](CC(C)C)NC(=O)[C@H](CCCCN)NC(=O)[C@@H](NC(=O)[C@@H](NC(=O)[C@H](CCC(=O)O)NC(=O)[C@H](CCC(=O)O)NC(=O)[C@H](CCSC)NC(=O)[C@H](Cc2c[nH]c3ccccc23)NC(=O)[C@H](CO)NC(=O)[C@H](C)N)C(C)C)[C@@H](C)CC)CSSC[C@@H]2NC(=O)[C@@H](NC(=O)[C@H](CCCCN)NC(=O)[C@H](CC(N)=O)NC(=O)[C@H](C)NC(=O)[C@H](CC(C)C)NC(=O)[C@H](C)NC(=O)[C@H](CO)NC(=O)[C@H](Cc3ccc(O)cc3)NC(=O)[C@H](CC(C)C)NC(=O)[C@@H](N)Cc3ccc(/C(C)=N/OCCNC(=O)CNC(=O)CNC(=O)CNC(=O)CNC(=O)[C@H](CO)NC(=O)CC[C@H](NC(=O)CCCCCCCCCCCCCC(=O)O)C(=O)O)cc3)CSSC[C@H](NC(=O)CNC(=O)[C@H](C(C)C)NC(=O)[C@H](Cc3c[nH]cn3)NC2=O)C(=O)N[C@@H]([C@@H](C)O)C(=O)N[C@@H](CCCCN)C(=O)N[C@@H](CCCNC(=N)N)C(=O)N[C@@H](CO)C(=O)N[C@@H](CC(C)C)C(=O)N[C@@H](C)C(=O)N[C@@H](CCCNC(=N)N)C(=O)N[C@@H](Cc2ccccc2)C(=O)N[C@H](C(=O)O)CSSC[C@@H](C(=O)NCC(=O)N[C@@H](CCSC)C(=O)N[C@@H](CO)C(=O)N[C@H](C(=O)N[C@@H](Cc2c[nH]c3ccccc23)C(=O)N[C@@H](CO)C(=O)O)[C@@H](C)O)NC1=O [AQ1-GGGGS-Glu^γ-C14-COOH] | 2.31 | 17 |  |  | vacuoles in renal tubular epithelial cells ([2]; subcutaneous 5, 20 and 40 mg/kg/day for 7 days, listed as AQ1-GGGGS-Glu^γ (SEQ ID NO: 139)-C14-COOH): Vacuoles are not observed; also recorded: no evidence of test-article related vacuoles; solubility profile (Solubility observations): favorable solubility profile
CC[C@H](C)[C@@H]1NC(=O)[C@H](C)NC(=O)[C@H]([C@@H](C)CC)NC(=O)[C@H](CCC(N)=O)NC(=O)[C@H](C)NC(=O)[C@H](CCCNC(=N)N)NC(=O)[C@H](C(C)C)NC(=O)[C@H](CC(C)C)NC(=O)[C@H](CCC(=O)O)NC(=O)[C@H](CCCNC(=N)N)NC(=O)CNC(=O)[C@@H](NC(=O)[C@H](CC(C)C)NC(=O)[C@H](CCCCN)NC(=O)[C@@H](NC(=O)[C@@H](NC(=O)[C@H](CCC(=O)O)NC(=O)[C@H](CCC(=O)O)NC(=O)[C@H](CCSC)NC(=O)[C@H](Cc2c[nH]c3ccccc23)NC(=O)[C@H](CO)NC(=O)[C@H](C)N)C(C)C)[C@@H](C)CC)CSSC[C@@H]2NC(=O)[C@@H](NC(=O)[C@H](CCCCN)NC(=O)[C@H](CC(N)=O)NC(=O)[C@H](C)NC(=O)[C@H](CC(C)C)NC(=O)[C@H](C)NC(=O)[C@H](CO)NC(=O)[C@H](Cc3ccc(O)cc3)NC(=O)[C@H](CC(C)C)NC(=O)[C@@H](N)Cc3ccc(/C(C)=N/OCCNC(=O)CCOCCOCCOCCOCCOCCOCCOCCOCCOCCOCCOCCOCCOCCOCCOCCOCCOCCOCCOCCOCCOCCOCCOCCOCCOCCOCCOCCOCCOCCOCCOCCOCCOCCOCCOCCOCCNC(=O)CC[C@H](NC(=O)CCCCCCCCCCCCC(=O)O)C(=O)O)cc3)CSSC[C@H](NC(=O)CNC(=O)[C@H](C(C)C)NC(=O)[C@H](Cc3c[nH]cn3)NC2=O)C(=O)N[C@@H]([C@@H](C)O)C(=O)N[C@@H](CCCCN)C(=O)N[C@@H](CCCNC(=N)N)C(=O)N[C@@H](CO)C(=O)N[C@@H](CC(C)C)C(=O)N[C@@H](C)C(=O)N[C@@H](CCCNC(=N)N)C(=O)N[C@@H](Cc2ccccc2)C(=O)N[C@H](C(=O)O)CSSC[C@@H](C(=O)NCC(=O)N[C@@H](CCSC)C(=O)N[C@@H](CO)C(=O)N[C@H](C(=O)N[C@@H](Cc2c[nH]c3ccccc23)C(=O)N[C@@H](CO)C(=O)O)[C@@H](C)O)NC1=O [AQ1-PEG36-Glu-C13-COOH] | 1 | 9.7 |  |  | vacuoles in renal tubular epithelial cells ([2]; subcutaneous 10 and 40 mg/kg/day for 7 days): marked cortical tubular vacuolation; also recorded: Vacuoles were observed
CCCCCCCCCCCCCC(=O)NCCO/N=C(\C)c1ccc(C[C@H](NC(=O)CNC(=O)[C@@H]2CSSC[C@@H](C(=O)O)NC(=O)[C@H](Cc3ccccc3)NC(=O)[C@H](CCCNC(=N)N)NC(=O)[C@H](C)NC(=O)[C@H](CC(C)C)NC(=O)[C@H](CO)NC(=O)[C@H](CCCNC(=N)N)NC(=O)[C@H](CCCCN)NC(=O)[C@H]([C@@H](C)O)NC(=O)[C@@H]3CSSC[C@H](NC(=O)[C@H](CCCCN)NC(=O)[C@H](CC(N)=O)NC(=O)[C@H](C)NC(=O)[C@H](CC(C)C)NC(=O)[C@H](C)NC(=O)[C@H](CO)NC(=O)[C@H](Cc4ccc(O)cc4)NC(=O)[C@H](CC(C)C)NC(=O)[C@@H](N)CC(N)=O)C(=O)N[C@@H](CSSC[C@H](NC(=O)[C@H](CC(C)C)NC(=O)[C@H](CCCCN)NC(=O)[C@@H](NC(=O)[C@@H](NC(=O)[C@H](CCC(=O)O)NC(=O)[C@H](CCC(=O)O)NC(=O)[C@H](CCSC)NC(=O)[C@H](Cc4c[nH]c5ccccc45)NC(=O)[C@H](CO)NC(=O)[C@H](C)N)C(C)C)[C@@H](C)CC)C(=O)NCC(=O)N[C@@H](CCCNC(=N)N)C(=O)N[C@@H](CCC(=O)O)C(=O)N[C@@H](CC(C)C)C(=O)N[C@@H](C(C)C)C(=O)N[C@@H](CCCNC(=N)N)C(=O)N[C@@H](C)C(=O)N[C@@H](CCC(N)=O)C(=O)N[C@@H]([C@@H](C)CC)C(=O)N[C@@H](C)C(=O)N[C@@H]([C@@H](C)CC)C(=O)N2)C(=O)N[C@@H](Cc2c[nH]cn2)C(=O)N[C@@H](C(C)C)C(=O)NCC(=O)N3)C(=O)N[C@@H](CO)C(=O)N[C@H](C(=O)N[C@@H](Cc2c[nH]c3ccccc23)C(=O)N[C@@H](CO)C(=O)O)[C@@H](C)O)cc1 [BM25/AN1-C13-CH3] |  |  | −100^a % |  | effect on renal blood flow (in words) ([3]; rats, 1 mg/kg): impaired renal blood flow; also recorded: decreased renal blood flow; death of animals after administration ([3]; rats, necropsy pale kidneys, 1 mg/kg): fatal
AQ1-20kDa PEG: AQ1 relaxin conjugated to PEG with an average MW of 20 kDa (chain 1 XLYSALANKCCHVGCTKRSLARFC; chain 2 ASWMEEVIKLCGRELVRAQIAICGMSTWS; non-natural residues) |  |  | +21% | increased renal blood flow | Rat PK AUC Total [1, 6]: 1.475 µM·h; level at time molar at 24 h [1, 6]: 39 nM
BM25/AN1: human relaxin 2 with pAcF at B chain position 25 and asparagine at A chain position 1 (SEQ ID NO: 36, 37) (chain 1 NLYSALANKCCHVGCTKRSLARFC; chain 2 ASWMEEVIKLCGRELVRAQIAICG[Phe(4-Ac)]STWS; disulfide (positions not given here); ends not checked) |  |  | −20% | impaired renal blood flow | 
Serelaxin |  |  |  |  | first-phase pharmacokinetic half-life [4]: 5 to 15 min
